Assay results published in US20220195404.

Molecular target: TevCas9 H557A (I-TevI domain-linker-SaCas9 H557A nickase) (Enterobacteria phage T4 / Staphylococcus aureus) (UniProt P13299+J7RUA5)
Test: cleavage_in_vitro

| Substance | relative cleavage rate (fold rate (reference)) (4-fold slower than exon 19 deletion substrate) | binding signal (fold rate vs wild-type EGFR) (faster cleavage of exon 19 deletion, PAM not stated) |
| --- | --- | --- |
| EGFR guide RNA ; EGFR wild-type DNA substrate | 1 |  |
| EGFR guide RNA ; EGFR exon 19 deletion DNA substrate |  | 4 |
